# Measured values as given in PMC10786891, “Massively parallel profiling of RNA-targeting CRISPR-Cas13d”.
# T1: EsCas13d, nuclease-dead (Eubacterium siraeum, UniProt B0MS50, R295A;H300A;R849A;H854A)
# T1 sequence: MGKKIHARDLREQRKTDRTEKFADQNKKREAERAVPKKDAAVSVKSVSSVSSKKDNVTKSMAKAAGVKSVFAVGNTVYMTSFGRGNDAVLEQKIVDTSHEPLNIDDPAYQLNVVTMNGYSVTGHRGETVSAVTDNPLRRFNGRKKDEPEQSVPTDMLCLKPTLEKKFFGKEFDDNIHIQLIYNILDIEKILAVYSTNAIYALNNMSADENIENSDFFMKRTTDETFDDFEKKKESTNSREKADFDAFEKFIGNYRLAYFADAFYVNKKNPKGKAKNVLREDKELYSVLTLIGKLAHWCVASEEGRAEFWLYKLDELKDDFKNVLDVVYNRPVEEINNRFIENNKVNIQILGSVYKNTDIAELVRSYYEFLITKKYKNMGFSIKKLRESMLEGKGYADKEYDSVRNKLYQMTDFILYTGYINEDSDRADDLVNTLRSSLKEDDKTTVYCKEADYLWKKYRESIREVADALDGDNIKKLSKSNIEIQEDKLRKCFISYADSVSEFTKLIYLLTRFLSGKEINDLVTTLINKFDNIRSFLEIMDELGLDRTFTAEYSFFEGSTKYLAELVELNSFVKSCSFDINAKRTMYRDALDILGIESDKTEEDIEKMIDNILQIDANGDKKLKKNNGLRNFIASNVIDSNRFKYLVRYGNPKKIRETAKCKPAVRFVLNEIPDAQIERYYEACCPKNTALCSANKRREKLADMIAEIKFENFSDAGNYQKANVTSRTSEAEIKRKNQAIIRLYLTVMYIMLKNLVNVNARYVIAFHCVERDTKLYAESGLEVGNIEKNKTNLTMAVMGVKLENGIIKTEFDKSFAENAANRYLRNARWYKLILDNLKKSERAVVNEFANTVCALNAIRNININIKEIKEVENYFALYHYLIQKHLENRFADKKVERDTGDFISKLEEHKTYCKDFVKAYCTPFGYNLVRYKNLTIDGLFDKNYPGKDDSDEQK
# Target: T1, EsCas13d, nuclease-dead
# Experiment: crRNA (strand 1, pre-loaded); Mg2+; 40 mM Tris-HCl pH 7.5, 150 mM NaCl, 6 mM MgCl2, 1 mM DTT, 0.1% Tween-20, 0.2 mg/ml BSA; 25 C; 10 min per concentration, then washed
# Details: tags: His6-TwinStrep-SUMO cleaved; N-terminal SNAP kept (SNAP-Surface 488); label: 3' end held by stalled T7 RNA polymerase
row,Binder,Kd
1,"target 1 insU 3' of 20,insC 3' of 17 (mixed) RNA 1: CACCCGUGCAAAAAUGCAGGGGUCUAAAACUGAGCGGAUAACCUCUCUAUGG RNA 2: GGGAAUGGAUCCACAUCUACGAAUUCGUACCAUUAGCAGAGGUUAUCCGCUCACCGAGAUCGGAAGAGCACACGU",44 ± 8 nM
2,"target 1 insC 3' of 12,insU 3' of 1 (mixed) RNA 1: CACCCGUGCAAAAAUGCAGGGGUCUAAAACUGAGCGGAUAACCUCUCUAUGG RNA 2: GGGAAUGGAUCCACAUCUACGAAUUCGUACCAUAGAGAGGCUUAUCCGCUCAUCCGAGAUCGGAAGAGCACACGU",12 ± 1.1 nM
3,"target 1 U11A,A18G (mixed) RNA 1: CACCCGUGCAAAAAUGCAGGGGUCUAAAACUGAGCGGAUAACCUCUCUAUGG RNA 2: GGGAAUGGAUCCACAUCUACGAAUUCGUACCAUGGAGAGGAUAUCCGCUCACCGAGAUCGGAAGAGCACACGU",80 ± 40 nM
4,"target 1 insC 3' of 11,insA 3' of 6 (mixed) RNA 1: CACCCGUGCAAAAAUGCAGGGGUCUAAAACUGAGCGGAUAACCUCUCUAUGG RNA 2: GGGAAUGGAUCCACAUCUACGAAUUCGUACCAUAGAGAGGUCUAUCCAGCUCACCGAGAUCGGAAGAGCACACGU",47 ± 14 nM
5,"target 1 U3A,A16C (mixed) RNA 1: CACCCGUGCAAAAAUGCAGGGGUCUAAAACUGAGCGGAUAACCUCUCUAUGG RNA 2: GGGAAUGGAUCCACAUCUACGAAUUCGUACCAUAGCGAGGUUAUCCGCACACCGAGAUCGGAAGAGCACACGU",76 ± 7 nM
6,"target 1 insG 3' of 22,insC 3' of 3 (mixed) RNA 1: CACCCGUGCAAAAAUGCAGGGGUCUAAAACUGAGCGGAUAACCUCUCUAUGG RNA 2: GGGAAUGGAUCCACAUCUACGAAUUCGUACGCAUAGAGAGGUUAUCCGCUCCACCGAGAUCGGAAGAGCACACGU",31.2 ± 3.4 nM
7,"target 1 insU 3' of 18,insA 3' of 7 (mixed) RNA 1: CACCCGUGCAAAAAUGCAGGGGUCUAAAACUGAGCGGAUAACCUCUCUAUGG RNA 2: GGGAAUGGAUCCACAUCUACGAAUUCGUACCAUAUGAGAGGUUAUCACGCUCACCGAGAUCGGAAGAGCACACGU",23.6 ± 2.6 nM
8,"target 1 insG 3' of 8,insG 3' of 7 (mixed) RNA 1: CACCCGUGCAAAAAUGCAGGGGUCUAAAACUGAGCGGAUAACCUCUCUAUGG RNA 2: GGGAAUGGAUCCACAUCUACGAAUUCGUACCAUAGAGAGGUUAUGCGCGCUCACCGAGAUCGGAAGAGCACACGU",8.24 ± 0.23 nM
9,"target 1 insU 3' of 15,insU 3' of 7 (mixed) RNA 1: CACCCGUGCAAAAAUGCAGGGGUCUAAAACUGAGCGGAUAACCUCUCUAUGG RNA 2: GGGAAUGGAUCCACAUCUACGAAUUCGUACCAUAGAGUAGGUUAUCUCGCUCACCGAGAUCGGAAGAGCACACGU",8.47 ± 0.27 nM
10,"target 1 insG 3' of 16,insA 3' of 13 (mixed) RNA 1: CACCCGUGCAAAAAUGCAGGGGUCUAAAACUGAGCGGAUAACCUCUCUAUGG RNA 2: GGGAAUGGAUCCACAUCUACGAAUUCGUACCAUAGAGGAGAGUUAUCCGCUCACCGAGAUCGGAAGAGCACACGU",16.1 ± 1.5 nM
11,target 1 insA 3' of 22 (mixed) RNA 1: CACCCGUGCAAAAAUGCAGGGGUCUAAAACUGAGCGGAUAACCUCUCUAUGG RNA 2: GGGAAUGGAUCCACAUCUACGAAUUCGUACACAUAGAGAGGUUAUCCGCUCACCGAGAUCGGAAGAGCACACGU,14.8 ± 1.1 nM
12,"target 1 insC 3' of 9,insG 3' of 8 (mixed) RNA 1: CACCCGUGCAAAAAUGCAGGGGUCUAAAACUGAGCGGAUAACCUCUCUAUGG RNA 2: GGGAAUGGAUCCACAUCUACGAAUUCGUACCAUAGAGAGGUUACUGCCGCUCACCGAGAUCGGAAGAGCACACGU",11.1 ± 0.4 nM
13,"target 1 insA 3' of 13,insU 3' of 9 (mixed) RNA 1: CACCCGUGCAAAAAUGCAGGGGUCUAAAACUGAGCGGAUAACCUCUCUAUGG RNA 2: GGGAAUGGAUCCACAUCUACGAAUUCGUACCAUAGAGAGAGUUAUUCCGCUCACCGAGAUCGGAAGAGCACACGU",4.6 ± 0.5 nM
14,"target 1 U8C,G17U (mixed) RNA 1: CACCCGUGCAAAAAUGCAGGGGUCUAAAACUGAGCGGAUAACCUCUCUAUGG RNA 2: GGGAAUGGAUCCACAUCUACGAAUUCGUACCAUAUAGAGGUUACCCGCUCACCGAGAUCGGAAGAGCACACGU",41 ± 4 nM
15,"target 1 insU 3' of 21,insA 3' of 10 (mixed) RNA 1: CACCCGUGCAAAAAUGCAGGGGUCUAAAACUGAGCGGAUAACCUCUCUAUGG RNA 2: GGGAAUGGAUCCACAUCUACGAAUUCGUACCUAUAGAGAGGUUAAUCCGCUCACCGAGAUCGGAAGAGCACACGU",39.2 ± 2.4 nM
16,"target 1 insC 3' of 12,insG 3' of 1 (mixed) RNA 1: CACCCGUGCAAAAAUGCAGGGGUCUAAAACUGAGCGGAUAACCUCUCUAUGG RNA 2: GGGAAUGGAUCCACAUCUACGAAUUCGUACCAUAGAGAGGCUUAUCCGCUCAGCCGAGAUCGGAAGAGCACACGU",8.5 ± 1.2 nM
17,"target 1 insC 3' of 12,insA 3' of 2 (mixed) RNA 1: CACCCGUGCAAAAAUGCAGGGGUCUAAAACUGAGCGGAUAACCUCUCUAUGG RNA 2: GGGAAUGGAUCCACAUCUACGAAUUCGUACCAUAGAGAGGCUUAUCCGCUCAACCGAGAUCGGAAGAGCACACGU",9.9 ± 1.1 nM
18,"target 1 insU 3' of 15,insC 3' of 9 (mixed) RNA 1: CACCCGUGCAAAAAUGCAGGGGUCUAAAACUGAGCGGAUAACCUCUCUAUGG RNA 2: GGGAAUGGAUCCACAUCUACGAAUUCGUACCAUAGAGUAGGUUACUCCGCUCACCGAGAUCGGAAGAGCACACGU",67 ± 7 nM
19,"target 1 insC 3' of 12,insC 3' of 1 (mixed) RNA 1: CACCCGUGCAAAAAUGCAGGGGUCUAAAACUGAGCGGAUAACCUCUCUAUGG RNA 2: GGGAAUGGAUCCACAUCUACGAAUUCGUACCAUAGAGAGGCUUAUCCGCUCACCCGAGAUCGGAAGAGCACACGU",7.7 ± 0.5 nM
20,"target 1 C6U,C7A (mixed) RNA 1: CACCCGUGCAAAAAUGCAGGGGUCUAAAACUGAGCGGAUAACCUCUCUAUGG RNA 2: GGGAAUGGAUCCACAUCUACGAAUUCGUACCAUAGAGAGGUUAUAUGCUCACCGAGAUCGGAAGAGCACACGU",8.6 ± 0.6 nM
21,"target 1 C4A,G5U (mixed) RNA 1: CACCCGUGCAAAAAUGCAGGGGUCUAAAACUGAGCGGAUAACCUCUCUAUGG RNA 2: GGGAAUGGAUCCACAUCUACGAAUUCGUACCAUAGAGAGGUUAUCCUAUCACCGAGAUCGGAAGAGCACACGU",30.6 ± 2.4 nM
22,"target 1 insC 3' of 18,insA 3' of 4 (mixed) RNA 1: CACCCGUGCAAAAAUGCAGGGGUCUAAAACUGAGCGGAUAACCUCUCUAUGG RNA 2: GGGAAUGGAUCCACAUCUACGAAUUCGUACCAUACGAGAGGUUAUCCGCAUCACCGAGAUCGGAAGAGCACACGU",38 ± 9 nM
23,"target 1 A9U,U10C (mixed) RNA 1: CACCCGUGCAAAAAUGCAGGGGUCUAAAACUGAGCGGAUAACCUCUCUAUGG RNA 2: GGGAAUGGAUCCACAUCUACGAAUUCGUACCAUAGAGAGGUCUUCCGCUCACCGAGAUCGGAAGAGCACACGU",8.6 ± 0.9 nM
24,"target 1 C6G,U19A (mixed) RNA 1: CACCCGUGCAAAAAUGCAGGGGUCUAAAACUGAGCGGAUAACCUCUCUAUGG RNA 2: GGGAAUGGAUCCACAUCUACGAAUUCGUACCAAAGAGAGGUUAUCGGCUCACCGAGAUCGGAAGAGCACACGU",35 ± 5 nM
